Biological target: E2-E1 heterodimer of WT Sindbis virus (strain TE12) (Sindbis virus) (UniProt P03316)
Experiment: cryo-EM structure

In the case of “E2-E1 heterodimer of WT Sindbis virus (strain TE12) (from UniProt P03316 807-1245) (complex)”, the stoichiometry N is reported as 3.

Source: article doi:10.1101/2021.09.02.458808
